Test results reported in patent US8173397B2, “Folded recombinant catalytic fragments of multidomain serine proteases, preparation and uses thereof” (TargetEx Kft., priority 2002, dated 2012).

How the values were obtained:
[1] = target: T1, MASP-1 CCP1-CCP2-SP (Homo sapiens, UniProt P48740); assay: Inhibition of the enzymatic activities of the MASP-1 fragment by C1-inhibitor and alpha-2-macroglobulin; format: biochemical
T1 construct: made in house
T1 sequence (P48740 298-699): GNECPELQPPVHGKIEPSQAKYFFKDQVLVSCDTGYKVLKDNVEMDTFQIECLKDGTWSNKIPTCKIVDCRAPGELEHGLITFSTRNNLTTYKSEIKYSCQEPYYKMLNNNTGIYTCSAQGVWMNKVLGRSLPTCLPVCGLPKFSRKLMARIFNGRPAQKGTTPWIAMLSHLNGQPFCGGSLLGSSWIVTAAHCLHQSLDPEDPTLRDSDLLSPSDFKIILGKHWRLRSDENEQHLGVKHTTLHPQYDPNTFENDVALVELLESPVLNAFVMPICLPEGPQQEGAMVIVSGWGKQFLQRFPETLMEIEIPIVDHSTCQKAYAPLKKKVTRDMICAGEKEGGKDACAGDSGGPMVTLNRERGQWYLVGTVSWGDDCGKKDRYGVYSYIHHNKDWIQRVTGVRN
Procedure: (§1) Reactivity toward C1-inhibitor and alpha-2-macroglobulin—Inhibition of the enzymatic activities of the MASP fragments by C1-inhibitor and alpha-2-macroglobulin were tested as follows. MASP-1 and MASP-2 fragments at concentrations selected in the C2, C3, C3(NH3) and C4 cleavage tests were incubated at 37° C. with excess molar ratios of either C1-inhibitor, alpha-2-macroglobulin, or buffer in 20 mM HEPES, 140 mM NaCl, pH 7.4 for 40 minutes. Complement substrates C2, C3, C3(NH3) or C4 were added at typical concentrations of 0.5-1 μM and the samples were further incubated for 20 minutes. The cleaved and uncleaved chains were visualized by reducing SDS-PAGE and the degree of inhibition was compared.

[2] = target: T2, MASP-2 fragments (Homo sapiens, UniProt O00187); assay: Inhibition of the enzymatic activities of the MASP-2 fragments by C1-inhibitor and alpha-2-macroglobulin; format: biochemical; details: for molar excess of inhibitor that abolishes all cleavages by the MASP-2 fragments: preincubation, C2, C3, C3(NH3), C4 substrates
T2 construct: T7-Tag fragment Ala-Ser-Met (N, cleaved yes); made in house
Procedure: as §1

[3] = marginal molar excess over the enzyme

T2 sequence (O00187 445-686 limits assumed): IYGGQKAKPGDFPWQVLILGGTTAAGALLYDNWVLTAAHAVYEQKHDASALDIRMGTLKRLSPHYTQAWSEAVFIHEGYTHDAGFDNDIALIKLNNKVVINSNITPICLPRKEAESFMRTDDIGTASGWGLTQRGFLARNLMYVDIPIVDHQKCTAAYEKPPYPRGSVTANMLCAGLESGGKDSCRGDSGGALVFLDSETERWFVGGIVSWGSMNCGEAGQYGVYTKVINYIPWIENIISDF
T2 sequence (O00187 291-444 partner limits assumed): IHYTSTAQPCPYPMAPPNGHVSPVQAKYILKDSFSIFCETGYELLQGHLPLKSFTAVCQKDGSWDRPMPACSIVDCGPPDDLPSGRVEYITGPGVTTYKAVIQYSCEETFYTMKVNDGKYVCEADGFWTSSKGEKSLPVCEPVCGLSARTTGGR

Row | effect on proteolytic activity of MASP-1 on all substrates, in words [1, 3] | effect on proteolytic activity of MASP-2 on all substrates, in words [2, 3] | molar excess of inhibitor that abolishes all cleavages by the MASP-2 fragments [2] | molar excess that completely blocks cleavage of C2 by the MASP-1 CCP1-CCP2-SP fragment ([1]; C2 cleavage) | molar excess over MASP-1 CCP1-CCP2-SP that blocks C3 cleavages ([1]; C3 cleavage) | molar excess over the MASP-2 fragments capable of significantly hindering C2 and C4 cleavage ([2]; C2 and C4 cleavage) [fold] | molar excess over MASP-2 CCP1-CCP2-SP that blocks C3 cleavages ([2]; C3 cleavage) | Substance
1 | completely abolished | completely abolished | 1-3 fold | – | – | – | – | C1-inhibitor: serpin C1-inhibitor purified from human serum
2 | – | – | 40 fold | 1-3 fold | 1-3 fold | 40 | 1-3 fold | alpha-2-macroglobulin: human alpha-2-macroglobulin isolated from plasma
